As a reminder, the Kd is a measure of binding affinity in units of concentration.

Kd data for one molecule are collected here from patent US20040204348A1.

The assay addresses recombinant soluble uPAR (suPAR), Q03405. The assay is described as follows: SPR (Biacore 3000), competition with scuPA. The note with it: remark: other sources report otherwise. (Surface plasmon resonance follows binding to a sensor surface in real time, without labels.)

Bridges are numbered along the chain shown (N, C = ends). L15 (R1 : phenyl) = linker L15: -CO-CH2-NH-CO-CH2-CH2-CH(CO-NH-CH2-CO-NH-R1)-NH- with R1 = phenyl (anilide)

Chain of recombinant soluble uPAR (suPAR), Q03405 (Q03405 23-299 limits assumed): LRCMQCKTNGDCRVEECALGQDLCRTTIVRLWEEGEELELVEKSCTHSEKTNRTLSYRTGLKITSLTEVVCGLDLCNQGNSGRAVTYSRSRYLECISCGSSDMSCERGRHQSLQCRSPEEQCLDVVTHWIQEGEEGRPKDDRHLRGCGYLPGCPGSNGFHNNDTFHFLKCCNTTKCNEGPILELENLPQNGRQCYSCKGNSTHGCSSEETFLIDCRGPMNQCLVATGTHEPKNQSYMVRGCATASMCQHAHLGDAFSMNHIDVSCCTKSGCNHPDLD

B1: Å36 (peptide)
peptide: VSNKYFSNIHW
modifications: linker N-C via L15 (R1 : phenyl); also: cyclised by linker L15 between X1 N and X11 carbonyl
As for B1, the Kd is 4 nM.
